Test [1] concerns the target active MASP-3cf (catalytic fragment of active MASP-3 containing the CCP1-CCP2-SP domains) (human) (UniProt P48740). Briefly: enzyme inhibition assay (equilibrium KI from residual activity, photometric); Ca2+-free buffer: 20 mM HEPES, 150 mM NaCl, 0.1 mM EDTA, 0.05% Triton-X100, pH 7.4.
Test [2] has the same target. The test is described as follows: enzyme inhibition assay (equilibrium KI from residual activity, photometric); enzymes co-incubated with serial dilutions of the inhibitors for 2 h at room temperature; 20 mM HEPES, 145 mM NaCl, 5 mM CaCl2, 0.05% Triton X-100, pH 7.5; Z-Lys-SBzl substrate, read at 410 nm.
Another test concerns the target active MASP-2cf (human). Described as above.
Another test deals with TFMI-3_HA (human) (UniProt P10646). The test is described as follows: SPR; ProteOn XPR36, GLM chip; TFMI-3_HA captured on immobilised anti-HA antibody (50-80 RU), MASP-3cf injected; 20 mM HEPES, 150 mM NaCl, 5 mM CaCl2, 0.05% Triton X-100, pH 7.4; 1:1 Langmuir model. In general terms: Surface plasmon resonance follows binding to a sensor surface in real time, without labels.

A word on the Ki: it is the dissociation constant of the complex between target and ligand, obtained from inhibition or displacement. By Kd is commonly meant the concentration at which binding is half-saturated. As a reminder, the koff is the first-order rate constant of dissociation. In general, kon refers to a measure of how fast the partners come together.

For “TFPI-based MASP-3 Inhibitor (TFMI-3) (from UniProt P10646 121-178) (designed binder)”, the Ki in test [1] came out at 9.9 nM; in test [2], 11.1 nM; with active MASP-2cf (human) it was 75 µM.

B1: active MASP-3cf (catalytic fragment of active MASP-3 containing the CCP1-CCP2-SP domains) (enzyme)
chain: IIGGRNAEPGLFPWQALIVVEDTSRVPNDKWFGSGALLSASWILTAAHVLRSQRRDTTVIPVSKEHVTVYLGLHDVRDKSGAVNSSAARVVLHPDFNIQNYNHDIALVQLQEPVPLGPHVMPVCLPRLEPEGPAPHMLGLVAGWGISNPNVTVDEIISSGTRTLSDVLQYVKLPVVPHAECKTSYESRSGNYSVTENMFCAGYYEGGKDTCLGDSGGAFVIFDDLSQRWVVQGLVSWGGPEECGSKQVYGVYTKVSNYVDWVWEQMGLPQSVVEPQVER
In the test with TFMI-3_HA (human), B1 had a Kd of 17.7 nM, a koff of 0.00093 s⁻¹ and a kon of 52500 M⁻¹ s⁻¹.

(Values after article PMC4989169.)
